The values that follow come from patent US20250027068.

To fix the notation:
B1: PRT-274 (protein)
chain: MVTSVWTKGVTPPTDFIYGEDVLHAPYKAGQGWYDITKTFNGKDNLLCGAATAGNMLHWWFDQNKEQIENYLKKHPEKQKIIFNNQELFDLKAAIDTKDSQLDSKLFDYFKEKAFPNLSTKHLGVFPDHVIDMFINGYRLSLLNHGPTPVKRGSKDKRGGIFDAVFTRGVQSKLLTNRHDLKNKTLKEISDLIKQELTEGKALGISHTYANVRINHVINLWGADFDAEGNLEAIYVTDSDTNPSIGMKKYFVGVNSSGKVAISAKEIEEDNIGAQVLGLFTLSTGQDIWNQTN
B2: PRT-289 (protein)
chain: MVTSVWTKGVTPPADFTQGEDVFHAPYVANQGWYDITKTFNGKDDLLCGAATAGNMLHWWFDQNKEYIEAYLKKHPEKQKIMFGDQELLDVRKAINTKGSQKNSELFNYFRDKAFPNLSARRLGVMPDLVLDMFINGYYLNVTKTQTTDVNRTYQEKDKRGGIFDAVFTRGDQSKLLTSRHDFKEKGLKEISDLIKQELTEGKALGLSHTYANVGINHVINLWGADFDSDGNLKAIYVTDSDSNASIGMKKYFVGVNSSGKVAISAKEIKEDNIGAQVLGLFTLSTGQDIWNQTN
B3: PRT-297 (protein)
chain: MVTSVWTKGVTPPADFTQGEDVFHAPYDANQGWYDITKEFNGKDDLLCGAATAGNMLHWWFDQNKEYIEAYLKKHPEKQKIMFGDQELLDVRKAINTKGSQKNSELFNYFRDKAFPNLSARRLGVMPDLVLDMFINGYYLNVTKTQTTDVNRTYQEKDKRGGIFDAVFTRGDQSKLLTSRHDFKEKGLKEISDLIKQELTEGKALGLSHTYANVRIGHVINLWGADFDSDGNLKAIYVTDSDSNASIGMKKYGVGVNSAGKVAISAKEIKEDNIGAQVLGLFTLSTGQDIWNQTN
B4: PRT-305 (protein)
chain: MVTSVWTKGVTPPTDFIKGEDVFHAPYKAGQGWYDITKEFNGKDDLLCGAATAGNMLHWWFDQNKEYIEAYLKKHPEKQKIMFGDQELLDVRKAINTKGSQKNSELFNYFRDKAFPNLSARRLGVMPDLVLDMFINGYYLNVTKTQTTDVNRTYQEKDKRGGIFDAVFTRGDQSKLLTSRHDFKEKGLKEISDLIKQELTEGKALGLSHTYANVRIGHVINLWGADFDSDGNLKAIYVTDSDSNASIGMKKYGVGVNSAGKVAISAKEIKEDNIGAQVLGLFTLSTGQDIWNQTN
B5: PRT-282 (protein)
chain: MVTSVWTKGVTPPAKFTQGEDVFHAPYVANQGWYDITKTFNGKDDLLCGAATAGNMLHWWFDQNKEKIEAYLKKHPDKQKIMFGDQELLDVRKVINTKGDQTNSELFNYFRDKAFPNLSARRIGVMPDLVLDMFINGYYLNVYKTQTTDVNRTYQEKDRRGGIFDAVFTRGDQSKLLTSRHDFKEKNLKEISDLIKKELTEGKALGLSHTYANVRLNHVINLWGADFDSNGNLKAIYVTDSDSNASIGMKKYFVGVNSSGKVAISAKEIKEDNIGAQVLGLFTLSTGQDSWNQTN
B6: PRT-313 (protein)
chain: MQITSVWTKGVTPLTPEQFRENNEDVIHAPYLAHQGWYDITKAFDGKDNLLCGAATAGNMLHWWFDQNKTEIEAYLSKHPEKQKIIFGNQELFDLKAAIDTKDSQTNSQLFDYFRDKAFPNLSARQLGVMPDLVLDMFINGYYLNVGKTQSTDVNRPYQDKDKRGGIFDAVFTRGDQTTLLTARHDLKNKGLNDISTIIKQELTEGRALALSHTYANVSISHVINLWGADFNAEGELEAIYVTDSDANPSIGMKKYFVGRNAHGHVAISAKKIEGENIGAQVLGLFTLSSGKDIWQKLS
B7: PRT-321 (protein)
chain: MTITSVWTKGVTPPTPEDFRENNEDVLHAPYVANQGWYDITKTFDGKDNLLCGAATAGNMLHWWFDQNKEEIERYLKKHPEKQKIIFGNQELFDVKAAIDTKDSQTNSKLFDYFRDKAFPNLSARQLGVMPDLVLDMFINGYYLNLPKTQSTDVNRPYQDKDKRGGIFDAVFTRGDQTTLLTARHDLKNKGLNEISDLIKQELTEGKALALSHTYANVRINHVINLWGADFDAEGNLIAIYVTDSDANASIGMKKYAVGVNANGKVAISAKKIEGDNIGAQVLGLFTLSTGQDQWQKLS
B8: PRT-329 (protein)
chain: MTITSVWTKGVTPPTPEDFRENNEDVLHAPYVANQGWYDITKTFDGKDNLLCGAATAGNMLHWWFDQNKEEIERYLKKHPEKQKIIFNNQELFDVKAAIDTKDSQTNSKLFNYFRDKAFPGLSARQLGVFPDLVLDMFINGYYLNLGKTQSTDVNRPYQDKDKRGGIFDAVFTRGVQTTLLTARHDLKNKGLNEISDLIKQELTEGKALALSHTYANVRINHVINLWGADFDAEGNLIAIYVTDSDANASIGMKKYFVGRNANGKVAISAKKIEGDNIGAQVLGLFTLSLGQDIWQKLS
B9: PRT-250 (protein)
chain: MVTSVWTKGVTPPTNFTYGEDVLHAPYVANQGWYDITKLFNGKDDLLCGAATAGNMLHWWFDQNKEQIENYLKKHPEKQKINFNGEQMFDVKEAIDTKDSQLDSKLFDYFKEKAFPNLSTKHLGVFPDHVIDMFINGYRLSLLNHGPTPVKRGSKDPRGGIFDAVFTRGDQSKLLTNRHDFKEKTLKEISDLIKQELTEGKALGISHTYANGRINHVINLWGADFDAEGNLEAIYVTDSDSNPSIGMKKYFVGVNSSGKVAISAKEIEEDNIGAQVLGLFTLSTGQDIWNQTN
B10: PRT-266 (protein)
chain: MVTSVWTKGVTPPTDFIYGEDVLHAPYKAGQGWYDITKTFNGKDDLLCGAATAGNMLHWWFDQNKEQIENYLKKHPEKQKINFNGEQMFDVKEAIDTKDSQLDSKLFEYFKEKAFPNLSTKHLGVFPDHVIDMFINGYRLSLLNHGPTPVKRGSKDPRGGIFDAVFTRGDQSKLLTNRHDLKNKTLKEISDLIKQELTEGKALGISHTYANVRINHVINLWGADFDAEGNLEAIYVTDSDSNASIGMKKYFVGVNSSGKVAISAKEIEEDNIGAQVLGLFTLSTGQDIWNQTN
B11: PRT-258 (protein)
chain: MVTSVWTKGVTPPTNFTYGEDVLHAPYVANQGWYDITKLFNGKDDLLCGAATAGNMLHWWFDQNKEQIENYLKKHPEKQKINFNGEQMFDVKEAIDTKDSQLDSKLFEYFLEKAFPYLSTKHLGVFPDHVIDMFINGYRLSLTNHGPTPVKRGSKDPRGGIFDAVFTRGDQSKLLTNRHDFKEKTLKEISDLIKQELTEGKALGISHTYANVRINHVINLWGADFDAEGNLEAIAVTDSDSNASIGMKKYFVGVNSSGKVAISAKEIEEDNIGAQVLGLFTLSTGQDIWNQTN
B12: PRT-242 (protein)
chain: MVTSVWTKGVTPPANFTQGEDVFHAPYVANQGWYDITKTFNGKDDLLCGAATAGNMLHWWFDQNKDQIKRYLEEHPEKQKINFNGEQMFDVKEAIDTKNHQLDSKLFDYFKEKAFPNLSTKHLGVFPDHVIDMFINGYRLSLLNHGPTPVKEGSKDPRGGIFDAVFTRGDQSKLLTSRHDFKEKNLKEISDLIKKELTEGKALGLSHTYANVRINHVINLWGADFDSNGNLKAIYVTDSDSNPSIGMKKYFVGVNSSGKVAISAKEIKEDNIGAQVLGLFTLSTGQDSWNQTN
B13: PRT-24 (protein)
chain: MANQEIRYSEVTPYHVTSVWTKGVTPPANFTQGEDVFHAPYVANQGWYDITKTFNGKDDLLCGAATAGNMLHWWFDQNKDQIERYLKEHPEKQKINFNGEQMFDVKEAIDTKDSQTDSKLFEYFKEKAFPYLSTKHLGVFPDHVLDMFINGYRLSLTNHGPTPVKEGSKDPRGGIFDAVFTRGDQSKLLTSRHDFKEKTLKEISDLIKKELTEGKALGLSHTYANVRINHVINLWGADFDSNGNLKAIYVTDSDSNASIGMKKYFVGVNSAGKVAISAKEIKEDNIGAQVLGLFTLSTGQDIWNQTN

The series addresses pooled human IgG.
In the case of B1, the Enzyme Activity Endpoint Assay (purified): Fab'2 is 1040 ng/µL, the Enzyme Activity Endpoint Assay (purified): Fc is 425 ng/µL, the Enzyme Activity Endpoint Assay (purified): IgG was 0 ng/µL and the Enzyme Activity Endpoint Assay (purified): scIgG is 0 ng/µL.
Turning to B2, the Enzyme Activity Endpoint Assay (purified): Fab'2 was determined as 581 ng/µL, the Enzyme Activity Endpoint Assay (purified): Fc was found to be 304 ng/µL, the Enzyme Activity Endpoint Assay (purified): IgG amounted to 90 ng/µL and the Enzyme Activity Endpoint Assay (purified): scIgG stood at 114 ng/µL.
As for B3, the Enzyme Activity Endpoint Assay (purified): Fab'2 turned out to be 484 ng/µL, the Enzyme Activity Endpoint Assay (purified): Fc was determined as 345 ng/µL, the Enzyme Activity Endpoint Assay (purified): IgG came out at 338 ng/µL and the Enzyme Activity Endpoint Assay (purified): scIgG amounted to 0 ng/µL.
On the same counts, the results for B4 are 786 ng/µL, 359 ng/µL, 91 ng/µL and 0 ng/µL.
On the same counts, the results for B5 are 69 ng/µL, 150 ng/µL, 34 ng/µL and 413 ng/µL.
On the same counts, the results for B6 are 409 ng/µL, 303 ng/µL, 114 ng/µL and 328 ng/µL.
B7 yielded an Enzyme Activity Endpoint Assay (purified): Fab'2 of 469 ng/µL, an Enzyme Activity Endpoint Assay (purified): Fc of 337 ng/µL, an Enzyme Activity Endpoint Assay (purified): IgG of 139 ng/µL and an Enzyme Activity Endpoint Assay (purified): scIgG of 214 ng/µL.
On the same counts, the results for B8 are 928 ng/µL, 406 ng/µL, 0 ng/µL and 0 ng/µL.
On the same counts, the results for B9 are 313 ng/µL, 310 ng/µL, 86 ng/µL and 454 ng/µL.
On the same counts, the results for B10 are 698 ng/µL, 401 ng/µL, 0 ng/µL and 0 ng/µL.
For B11, the Enzyme Activity Endpoint Assay (purified): Fab'2 worked out at 762 ng/µL, the Enzyme Activity Endpoint Assay (purified): Fc turned out to be 425 ng/µL, the Enzyme Activity Endpoint Assay (purified): IgG amounted to 0 ng/µL and the Enzyme Activity Endpoint Assay (purified): scIgG stood at 0 ng/µL.
Turning to B12, the Enzyme Activity Endpoint Assay (purified): Fab'2 turned out to be 1030 ng/µL, the Enzyme Activity Endpoint Assay (purified): Fc was determined as 418 ng/µL, the Enzyme Activity Endpoint Assay (purified): IgG was 0 ng/µL and the Enzyme Activity Endpoint Assay (purified): scIgG worked out at 0 ng/µL.
On to B13, for which the Enzyme Activity Endpoint Assay: Fab′2 was determined as 52 ng/µL, the Enzyme Activity Endpoint Assay: Fc stood at 131 ng/µL, the Enzyme Activity Endpoint Assay: IgG was 18 ng/µL and the Enzyme Activity Endpoint Assay: scIgG stood at 16 ng/µL.
